Measured values taken from patent publication US20240336661A1, “PEPTIDES DERIVED FROM RUMINOCOCCUS TORQUES” (University of Copenhagen, priority 2021, published 2024).

B1: RUCILP2: 87 amino acid irisin-like polypeptide cleaved from the Ruminococcus torques FNDC5-like protein RUMTOR_00181; recombinant, 6-His-tagged from E. coli (protein)
chain: APVDVKVSEITETSAKASWKNAADGKEAAGYNVYVDGVKLNKELLTEASCGLTNLKAETTYFVEVTAVDAAGNESVKSEKVTFKTLK
modifications: 6-His tag; Ruminococcus torques
notes: 87 amino acid irisin-like polypeptide cleaved from the Ruminococcus torques FNDC5-like protein RUMTOR_00181; recombinant, 6-His-tagged from E. coli
B2: RUCILP1: 88 amino acid FNIII domain polypeptide of RUMTOR_00181 from Ruminococcus torques (protein)
chain: APVDVKVSEVTETSAKVSWKNAADGKEAAGYNVYVDGTKVNEELIAETTYNVSSLKDGTTYSVEVTAVDAAGEESAKSEKVEFTTVKK
modifications: Ruminococcus torques
notes: 88 amino acid FNIII domain polypeptide of RUMTOR_00181 from Ruminococcus torques

Assays:
murine C2C12 myoblasts = assay: Myotube formation and myogenesis gene expression in C2C12 myoblasts; assay type: cell-based, mouse
Procedure: FIG. 12. […] The C2C12 myotubes were treated with indicated doses of RUCILP2 overnight and myotube images were collected at magnification, ×10.
FIG. 28. […] White preadipocytes from human visceral fat (C-12732, PromoCell) were cultured until 80% confluent and switched into differentiation media (with 0.3 ml/ml of fetal calf serum (FCS), 8 ug/ml of d-biotin, 0.5ug/ml of insulin, 400 ng/ml of dexamethasone) in the presence of 15 nM of 21-AABP2. The differentiation process to mature adipocytes was completed after 14 days. Cells were harvested after 14 days of differentiation and the indicated genes were quantified by q-PCR. Inguinal fat tissues from 6-week-old wild-type C57BL/6J female mice were dissected and washed with PBS, minced and digested for 1 hour at 37° C. in PBS containing 10 mM CaCl2, 2.4 U/ml dispase II (Roche) and 10 mg/ml collagenase D (Roche). After adding warm DMEM/F12 (1:1) with 10% FCS, digested tissue was filtered through a […] cell strainer and centrifuged at 600×g for 10 minutes. Pellet was resuspended by 40 ml DMEM/F12 (1:1) with 10% FCS and filtered through a […] cell strainer followed by centrifugation at 600×g for 10 minutes. Pelleted inguinal stromal vascular cells were grown to confluence and split onto 12-well plates. The cells were induced to differentiate by treatment with […], 0.5 mM isobutyl methyl xanthine for 2 days. After that, cells were maintained in […] for 4 days with medium change every other day. The cells were treated with 15 nM of 21-AABP2 every other day during 6 days of differentiation. Cells were harvested after 6 days of differentiation and thermogenesis gene were quantified by q-PCR. C2C12 myoblasts (CRL-1772, ATCC) were cultured until 80% confluent and switched into differentiation media (with 2% horse serum). The treatment with 21-AABP2 started from the second day of differentiation. Cells were harvested after 4 days of differentiation and expression of myogenesis genes were quantified by q-PCR. Data are presented as mean+/−SEM of one representative experiment done in biological triplicates. Statistical significance was determined by unpaired two-tailed Student's t test, *, p<0.05
FIG. 29. […] Representative images of myoblasts (CRL-1772, ATCC) at 24h of differentiation in the presence of phosphate buffered saline (PBS, blank) or 21-AABP2 (15 nM). Presented images were from one representative experiment done in biological triplicates.
C2C12 cells were seeded on 12-well plates under DMEM/F-12 medium (Dulbecco's Modified Eagle Medium/Nutrient Mixture F-12, Fisher Scientific, #11524436), supplemented with 10% FBS (Fetal Bovine Serum, Fisher Scientific, #11550356) and 1% Penicillin-Streptomycin (Fisher Scientific, #11548876). Cell cultures were maintained in a humidified chamber with 5% CO2 at 37° C., and culture media were changed every 2-3 days.
At approximately 80% confluence, 10% fetal bovine serum was replaced with 2% horse serum to induce C2C12 myoblast cells to differentiate into myotubes. Twenty-four hours later (day 1 of the differentiation), the cells were treated with recombinant RUCILP2 or commercial recombinant irisin (Sigma, #SRP8039-10UG and Phoenix pharmaceuticals, #067-29A) or saline. For integrin inhibitor treatment, cells were treated with 10 μM of CycloRGDyK (Selleckchem, #S7844) for 10 minutes and washed with PBS before treated with recombinant RUCILP2 or commercial recombinant irisin or saline. At day three, the cells were refreshed with the same media as day one. After treatments for six hours on day 3, C2C12 cells were harvested for qRT-PCR analysis.
C2C12 myoblasts were cultured until 80% confluent and switched into differentiation media (with 2% horse serum). The treatment with 21-AABP2 started from the second day of differentiation. Representative images of the formed myotubes at 24h of differentiation in the presence of PBS (blank) or 21-AABP2 (15 nM) were captured. […]

[1] = system: subcutaneous white adipose tissue (SWAT) and liver; assay: Intraperitoneal RUCILP1 or RUCILP2 for 7 days in mice, gene expression in SWAT and liver; assay type: in vivo, mouse; settings: 1 mg/kg i.p.
Procedure: FIG. 46. Effects of RUCILP1 and RUCILP2 on gene expression in vivo. Recombinant RUCILPs were daily injected into peritoneum of 8-week-old wild type C57BL/6N mice at a concentration of 1 mg/kg for one week. The mRNA levels of indicated genes in subcutaneous white adipose tissue (SWAT) and liver were analyzed by qRT-PCR. n=6 animals per group. * indicates p<0.05 using one-way ANOVA followed by Dunnett post hoc correction. Data are expressed as mean±SEM.
For the RUCILPs intervention study, male mice (n=6 per group, 8 weeks of age) fed with standard chow diet were treated daily with an in intraperitoneal injection of 1 mg/kg recombinant RUCILP1, RUCILP2, or saline, respectively, for a week. All animals were then sacrificed and subcutaneous fat pads and liver were collected. The mRNA levels of indicated genes in subcutaneous fat and liver were analyzed by qRT-PCR as described in standard protocol for gene expression analysis.
Total RNA from cells or tissues was extracted according to the instructions provided by manufacturer of RNeasy mini kit (Qiagen) using QIAzol lysis reagent (Qiagen), followed by measurements of RNA purities and concentrations by NanoDrop 2000 spectrophotometer (Thermo Scientific). A total of 1 μg of RNA was used for the reverse transcription to cDNA using the iScript™ Select cDNA Synthesis Kit (Bio-Rad Laboratories). The samples were subjected to real-time PCR using the LC480 system (Roche Diagnostics) after premixing with Precision®PLUS Master Mix (Primer Design). For each indicated gene, samples were run in duplicate in a 384-well plate and ΔΔCt method was used for quantifying the expressions after normalization to the housekeeping Rpl36 or GAPDH gene.

Molecule	myotube formation (murine C2C12 myoblasts; C2C12, treated overnight)	expression of Heyl (murine C2C12 myoblasts; C2C12 myoblasts, dose-response)	myotube formation markers Sox8 and Stat3 (murine C2C12 myoblasts; C2C12 myoblasts, dose-response)	gene markers for white adipocytes AdipoQ and Ppara in SWAT [1]	genes involved in gluconeogenesis G6pase and Pepck1 in liver [1]	thermogenic markers Ucp1, Prdm16, Dio2 in SWAT [1]
B1	induces myotube formation	more clear dose-dependence response	less dose-dependent	diminishes expression	lowered expression	comparable effects
B2	–	–	less dose-dependent	did not find significant reduction	no effect	comparable effects
